PMC6328183

Biological target: FuBc protein (recombinant protein of the fusion loop and Bc loop of domain II of dengue envelope protein with their neighbouring residues) (DENV-2 (of the template structure PDB 1OAN))
Assay: SPR; Biacore T200; FuBc immobilised by amine coupling; scFv injected at 10 uM down to 50 nM, 20 ul/min over 2 min; regeneration with 2 M NaCl; control flow cell subtracted; KD as kd/ka

3IXY scFv antibody (VH and VL of the anti-fusion loop dengue E53 Fab, PDB 3IXY, joined by a (G4S)3 linker), sequence (VH): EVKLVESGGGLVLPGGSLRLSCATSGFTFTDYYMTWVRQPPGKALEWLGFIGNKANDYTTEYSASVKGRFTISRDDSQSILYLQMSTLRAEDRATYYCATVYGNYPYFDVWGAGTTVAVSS
3IXY scFv antibody (VH and VL of the anti-fusion loop dengue E53 Fab, PDB 3IXY, joined by a (G4S)3 linker), sequence (VL): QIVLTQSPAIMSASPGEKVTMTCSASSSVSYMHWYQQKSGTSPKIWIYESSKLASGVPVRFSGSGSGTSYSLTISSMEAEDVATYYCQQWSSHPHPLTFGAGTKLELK

“3IXY scFv antibody (VH and VL of the anti-fusion loop dengue E53 Fab, PDB 3IXY, joined by a (G4S)3 linker)” showed a Kd of 2.3 µM.
